From patent US20150231203A1 (UTI LIMITED PARTNERSHIP, published 2015)
No end group written: not given here.

T1: recombinant human USP5 short isoform (human, UniProt P45974-2 1-835)
T1 construct: Purified recombinant protein bought from EnzoLifeSciences; also called hUSP5 short; USP5 short isoform (835 amino acids)
T1 sequence (looked up): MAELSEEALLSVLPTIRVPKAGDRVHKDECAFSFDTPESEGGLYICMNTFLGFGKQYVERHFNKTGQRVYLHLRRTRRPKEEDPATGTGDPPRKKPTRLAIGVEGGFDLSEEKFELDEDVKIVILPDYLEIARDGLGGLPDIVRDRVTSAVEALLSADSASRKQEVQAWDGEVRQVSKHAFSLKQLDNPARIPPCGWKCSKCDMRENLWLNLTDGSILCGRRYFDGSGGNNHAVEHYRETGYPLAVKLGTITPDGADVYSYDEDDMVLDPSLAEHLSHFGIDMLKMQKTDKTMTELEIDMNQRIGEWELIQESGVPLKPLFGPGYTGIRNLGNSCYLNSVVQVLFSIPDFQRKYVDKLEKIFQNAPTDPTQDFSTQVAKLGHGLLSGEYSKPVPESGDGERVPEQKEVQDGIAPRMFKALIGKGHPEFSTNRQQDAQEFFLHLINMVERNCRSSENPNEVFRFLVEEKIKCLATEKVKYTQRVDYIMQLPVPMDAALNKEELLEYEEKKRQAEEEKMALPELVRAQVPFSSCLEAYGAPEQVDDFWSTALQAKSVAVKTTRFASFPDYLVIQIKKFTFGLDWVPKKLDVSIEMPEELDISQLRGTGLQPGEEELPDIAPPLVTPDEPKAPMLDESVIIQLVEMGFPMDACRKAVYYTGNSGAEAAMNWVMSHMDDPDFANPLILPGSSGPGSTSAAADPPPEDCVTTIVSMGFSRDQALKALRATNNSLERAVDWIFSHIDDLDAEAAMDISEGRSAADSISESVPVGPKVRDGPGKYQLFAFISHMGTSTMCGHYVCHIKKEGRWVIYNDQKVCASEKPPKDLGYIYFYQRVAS

T2: recombinant human USP5 long isoform (human, UniProt P45974 1-858)
T2 construct: Purified recombinant protein bought from EnzoLifeSciences; also called hUSP5 long; USP5 long isoform (858 amino acids)
T2 sequence: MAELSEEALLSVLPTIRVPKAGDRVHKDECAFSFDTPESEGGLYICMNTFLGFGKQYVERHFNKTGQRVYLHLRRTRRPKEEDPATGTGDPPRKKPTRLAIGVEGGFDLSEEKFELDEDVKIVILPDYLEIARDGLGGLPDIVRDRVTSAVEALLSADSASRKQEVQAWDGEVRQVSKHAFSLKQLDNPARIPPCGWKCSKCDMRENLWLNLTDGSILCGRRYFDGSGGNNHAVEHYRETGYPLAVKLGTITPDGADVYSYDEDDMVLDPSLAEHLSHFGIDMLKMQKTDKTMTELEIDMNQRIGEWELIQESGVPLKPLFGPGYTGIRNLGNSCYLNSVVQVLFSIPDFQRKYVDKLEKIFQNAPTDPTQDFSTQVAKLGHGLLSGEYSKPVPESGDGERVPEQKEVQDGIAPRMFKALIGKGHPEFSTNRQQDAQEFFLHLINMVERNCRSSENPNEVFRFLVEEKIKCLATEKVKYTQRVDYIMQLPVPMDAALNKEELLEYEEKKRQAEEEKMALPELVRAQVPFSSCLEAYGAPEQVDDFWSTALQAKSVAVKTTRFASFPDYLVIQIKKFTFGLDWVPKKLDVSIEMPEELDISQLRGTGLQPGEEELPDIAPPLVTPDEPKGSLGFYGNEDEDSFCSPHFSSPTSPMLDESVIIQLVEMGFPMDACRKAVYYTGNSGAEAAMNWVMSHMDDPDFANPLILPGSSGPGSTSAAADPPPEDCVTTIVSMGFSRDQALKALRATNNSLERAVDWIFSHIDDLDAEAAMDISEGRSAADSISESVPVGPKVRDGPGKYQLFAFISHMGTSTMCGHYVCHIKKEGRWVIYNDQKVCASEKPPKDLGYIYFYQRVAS

B1: USP5 (mouse, endogenous, from brain, DRG or dorsal horn lysate) (enzyme, UniProt P56399 2-858, looked up)
chain: AELSEEALLSVLPTIRVPKAGDRVHKDECAFSFDTPESEGGLYICMNTFLGFGKQYVERHFNKTGQRVYLHLRRTRRPKEEDTSAGTGDPPRKKPTRLAIGVEGGFDLTEDKFEFDEDVKIVILPDYLEIARDGLGGLPDIVRDRVTSAVEALLSADSASRKQEVQAWDGEVRQVSKHAFNLKQLDNPARIPPCGWKCSKCDMRENLWLNLTDGSILCGRRYFDGSGGNNHAVEHYRETGYPLAVKLGTITPDGADVYSYDEDDMVLDPSLAEHLSHFGIDMLKMQKTDKTMTELEIDMNQRIGEWELIQESGVPLKPLFGPGYTGIRNLGNSCYLNSVVQVLFSIPDFQRKYVDKLEKIFQNAPTDPTQDFSTQVAKLGHGLLSGEYSKPALESGDGEQVPEQKEVQDGIAPRMFKALIGKGHPEFSTNRQQDAQEFFLHLINMVERNCRSSENPNEVFRFLVEEKIKCLATEKVKYTQRVDYIMQLPVPMDAALNKEELLEYEEKKRQAEEEKVPLPELVRAQVPFSSCLEAYGAPEQVDDFWSTALQAKSVAVKTTRFASFPDYLVIQIKKFTFGLDWVPKKLDVSIEMPEELDISQLRGTGLQPGEEELPDIAPPLVTPDEPKGSLGFYGNEDEDSFCSPHFSSPTSPMLDESVIIQLVEMGFPMDACRKAVYYTGNSGAEAAMNWVMSHMDDPDFANPLILPGSSGPGSTSAAADPPPEDCVTTIVSMGFSRDQALKALRATNNSLERAVDWIFSHIDDLDAEAAMDISEGRSAAESISESVPVGPKVRDGPGKYQLFAFISHMGTSTMCGHYVCHIKKEGRWVIYNDQKVCASEKPPKDLGYIYFYQRVVS
B2: human biotin-Cav3.2 1556-1602 III-IV linker peptide (peptide, UniProt O95180-2 1556-1602, looked up)
peptide: ENFHKCRQHQEAEEARRREEKRLRRLERRRRKAQRRPYYADYSPTRR-biotin
modifications: not fully specified
notes: Synthetic peptide containing the PY motif; also called long III-IV linker
B3: biotin-Tat-3.2 III-IV 1569-1589 linker peptide (peptide)
peptide: YGRKKRRQRRREARRREEKRLRRLERRRRKAQ
modifications: not fully specified (N-terminus); also: biotin, position not given here
notes: also called biotinylated Cav3.21569-1589 III-IV linker peptide; Tat-Cav3.21569-1589 III-IV linker peptide
B4: Tat-Cav3.2 1569-1589 III-IV linker peptide (non-biotinylated) (peptide)
peptide: YGRKKRRQRRREARRREEKRLRRLERRRRKAQ
notes: also called Tat-3.2-III-IV1569-1589 linker; Tat-3.2-III-IV
B5: human biotin-Cav3.2 1860-1884 C-terminus peptide (peptide, UniProt O95180-2 1860-1884, looked up)
peptide: SNKEAREDAELDAEIELEMAQGPGS-biotin
modifications: not fully specified
notes: Control peptide; also called hCav3.21860-1884 (CT); Cav3.2 C-terminus peptide
B6: human biotin-Cav3.2 1569-1586 short III-IV linker peptide (peptide, UniProt O95180-2 1569-1586, looked up)
peptide: EARRREEKRLRRLERRRR
modifications: also: biotin, position not given here
notes: range 1569-1586; Synthetic peptide lacking the PY motif; also called hCav3.21569-1586; 18 amino acid short peptide lacking the PY motif

Columns and labels:
[1] = target: Cav3.2 channel (mouse, endogenous full-length channel from DRG, brain or dorsal horn) (mouse, UniProt O88427 1-2365, limits assumed); assay: cell-based or functional assay
[2] = target: T1, recombinant human USP5 short isoform; assay: in vitro binding assay of purified recombinant USP5 to biotinylated peptide, western blot
[3] = target: T2, recombinant human USP5 long isoform; assay: as above
[4] = target: T3, WWP1 (mouse, endogenous, from DRG lysate) (mouse, UniProt Q8BZZ3 1-918); assay: affinity precipitation from mouse DRG lysate with biotinylated peptide, western blot for WWP1
T3 construct: also called HECT E3 ligase WWP1

[5] = target: B1; assay: affinity precipitation from mouse brain lysate with biotinylated peptide, western blot for USP5
[6] = target: B1; assay: affinity precipitation from mouse brain lysate with biotinylated Tat peptide (25 µg), western blot for USP5
[7] = target: B1; assay: in vitro competition by affinity precipitation from mouse brain lysate; competitor 50 µg against biotin-Tat peptide 25 µg

Cav3.2 channel (mouse, endogenous full-length channel from DRG, brain or dorsal horn), sequence (O88427 whole entry, canonical isoform): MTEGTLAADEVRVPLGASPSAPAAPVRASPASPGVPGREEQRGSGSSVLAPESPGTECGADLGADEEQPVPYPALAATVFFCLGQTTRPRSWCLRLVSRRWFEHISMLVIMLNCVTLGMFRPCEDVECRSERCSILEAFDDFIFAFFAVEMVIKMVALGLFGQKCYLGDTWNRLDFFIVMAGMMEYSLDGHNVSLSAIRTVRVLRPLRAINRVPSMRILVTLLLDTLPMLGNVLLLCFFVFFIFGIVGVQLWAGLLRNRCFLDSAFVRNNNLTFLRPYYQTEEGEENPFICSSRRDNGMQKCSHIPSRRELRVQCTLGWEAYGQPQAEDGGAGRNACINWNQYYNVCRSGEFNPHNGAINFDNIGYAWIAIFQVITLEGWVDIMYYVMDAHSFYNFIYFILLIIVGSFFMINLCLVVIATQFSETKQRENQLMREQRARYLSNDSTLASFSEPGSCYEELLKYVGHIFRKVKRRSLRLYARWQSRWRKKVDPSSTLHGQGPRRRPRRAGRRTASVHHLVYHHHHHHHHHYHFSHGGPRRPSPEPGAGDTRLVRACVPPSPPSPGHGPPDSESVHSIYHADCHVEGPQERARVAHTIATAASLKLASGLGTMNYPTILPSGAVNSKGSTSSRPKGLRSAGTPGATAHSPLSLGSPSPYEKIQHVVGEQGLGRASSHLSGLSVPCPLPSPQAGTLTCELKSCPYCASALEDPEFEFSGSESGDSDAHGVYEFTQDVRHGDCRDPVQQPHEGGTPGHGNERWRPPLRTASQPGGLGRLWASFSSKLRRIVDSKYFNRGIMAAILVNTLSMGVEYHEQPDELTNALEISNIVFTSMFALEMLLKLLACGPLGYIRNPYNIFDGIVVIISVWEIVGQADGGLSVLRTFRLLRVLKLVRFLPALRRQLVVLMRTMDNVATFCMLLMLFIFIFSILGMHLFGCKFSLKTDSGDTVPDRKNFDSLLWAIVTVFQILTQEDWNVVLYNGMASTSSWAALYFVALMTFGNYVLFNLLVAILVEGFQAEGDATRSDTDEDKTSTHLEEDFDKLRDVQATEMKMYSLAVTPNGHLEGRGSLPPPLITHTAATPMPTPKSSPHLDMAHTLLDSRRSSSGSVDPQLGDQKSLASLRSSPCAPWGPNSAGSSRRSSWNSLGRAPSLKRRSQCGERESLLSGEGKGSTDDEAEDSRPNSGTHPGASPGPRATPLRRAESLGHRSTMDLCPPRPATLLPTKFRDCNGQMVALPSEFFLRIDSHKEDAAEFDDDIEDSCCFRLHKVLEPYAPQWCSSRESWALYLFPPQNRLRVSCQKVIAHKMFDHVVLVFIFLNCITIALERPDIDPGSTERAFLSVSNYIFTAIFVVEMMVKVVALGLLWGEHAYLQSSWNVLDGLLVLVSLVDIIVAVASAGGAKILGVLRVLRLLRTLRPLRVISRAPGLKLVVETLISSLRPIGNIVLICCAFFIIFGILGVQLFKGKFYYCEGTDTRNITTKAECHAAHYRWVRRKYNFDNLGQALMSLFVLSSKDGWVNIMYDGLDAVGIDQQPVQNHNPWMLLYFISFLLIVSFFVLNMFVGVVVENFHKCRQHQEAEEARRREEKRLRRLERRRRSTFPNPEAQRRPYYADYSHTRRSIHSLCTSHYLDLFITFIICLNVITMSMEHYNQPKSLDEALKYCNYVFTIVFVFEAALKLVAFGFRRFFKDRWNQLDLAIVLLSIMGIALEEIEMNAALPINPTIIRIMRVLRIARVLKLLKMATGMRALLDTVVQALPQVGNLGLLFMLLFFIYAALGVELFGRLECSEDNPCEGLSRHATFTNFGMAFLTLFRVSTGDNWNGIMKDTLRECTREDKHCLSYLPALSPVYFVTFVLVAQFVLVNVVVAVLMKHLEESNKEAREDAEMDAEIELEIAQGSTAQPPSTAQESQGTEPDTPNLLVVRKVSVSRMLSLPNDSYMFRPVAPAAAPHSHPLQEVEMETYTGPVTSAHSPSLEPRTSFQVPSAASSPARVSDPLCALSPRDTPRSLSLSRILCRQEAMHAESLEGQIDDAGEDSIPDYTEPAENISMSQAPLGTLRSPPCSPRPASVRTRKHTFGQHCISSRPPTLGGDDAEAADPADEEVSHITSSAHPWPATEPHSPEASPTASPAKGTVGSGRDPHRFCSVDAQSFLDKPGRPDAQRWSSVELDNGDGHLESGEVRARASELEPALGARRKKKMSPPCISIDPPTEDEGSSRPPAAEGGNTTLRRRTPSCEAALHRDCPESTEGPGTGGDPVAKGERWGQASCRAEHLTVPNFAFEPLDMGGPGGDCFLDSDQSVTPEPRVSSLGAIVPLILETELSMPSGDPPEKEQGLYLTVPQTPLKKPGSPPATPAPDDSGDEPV

| Binder | binding result [2] | binding result [3] | binding result [4] | binding result [5] | other results |
| --- | --- | --- | --- | --- | --- |
| B1 |  |  |  |  | channel ubiquitination of Cav3.2 immunoprecipitates from CAD cells transfected with USP5-shRNA against USP15-shRNA [1]: ~5 fold |
| B2 | binds | binds | binds | binds |  |
| B3 |  |  |  |  | binding result [6]: binds |
| B4 |  |  |  |  | binding result [7]: binds |
| B5 | no binding | no binding |  | no binding |  |
| B6 |  |  | binds |  |  |
